Laboratory results as given in IntAct's records for PubMed 25416956.

B1: Keratin, type II cytoskeletal 6A (Homo sapiens), P02538 (parent)
chain: MASTSTTIRSHSSSRRGFSANSARLPGVSRSGFSSVSVSRSRGSGGLGGACGGAGFGSRSLYGLGGSKRISIGGGSCAISGGYGSRAGGSYGFGGAGSGFGFGGGAGIGFGLGGGAGLAGGFGGPGFPVCPPGGIQEVTVNQSLLTPLNLQIDPTIQRVRAEEREQIKTLNNKFASFIDKVRFLEQQNKVLETKWTLLQEQGTKTVRQNLEPLFEQYINNLRRQLDSIVGERGRLDSELRGMQDLVEDFKNKYEDEINKRTAAENEFVTLKKDVDAAYMNKVELQAKADTLTDEINFLRALYDAELSQMQTHISDTSVVLSMDNNRNLDLDSIIAEVKAQYEEIAQRSRAEAESWYQTKYEELQVTAGRHGDDLRNTKQEIAEINRMIQRLRSEIDHVKKQCANLQAAIADAEQRGEMALKDAKNKLEGLEDALQKAKQDLARLLKEYQELMNVKLALDVEIATYRKLLEGEECRLNGEGVGQVNISVVQSTVSSGYGGASGVGSGLGLGGGSSYSYGSGLGVGGGFSSSSGRAIGGGLSSVGGGSSTIKYTTTSSSSRKSYKH
partner: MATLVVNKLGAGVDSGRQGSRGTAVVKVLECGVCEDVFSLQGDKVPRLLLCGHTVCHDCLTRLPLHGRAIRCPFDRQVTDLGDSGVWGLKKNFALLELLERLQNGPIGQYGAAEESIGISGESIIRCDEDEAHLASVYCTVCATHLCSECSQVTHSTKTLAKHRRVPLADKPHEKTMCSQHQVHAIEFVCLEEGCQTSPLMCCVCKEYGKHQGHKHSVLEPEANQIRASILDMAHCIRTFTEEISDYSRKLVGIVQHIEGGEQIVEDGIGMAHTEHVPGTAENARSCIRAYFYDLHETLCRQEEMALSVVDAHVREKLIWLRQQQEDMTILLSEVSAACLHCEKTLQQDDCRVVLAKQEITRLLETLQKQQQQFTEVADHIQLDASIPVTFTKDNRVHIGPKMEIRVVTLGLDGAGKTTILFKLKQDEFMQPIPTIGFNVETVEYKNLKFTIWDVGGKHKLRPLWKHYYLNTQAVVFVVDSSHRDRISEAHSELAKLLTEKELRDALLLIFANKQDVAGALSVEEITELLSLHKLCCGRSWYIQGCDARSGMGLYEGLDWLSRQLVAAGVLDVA
B2: Keratin, type II cytoskeletal 6A (Homo sapiens), P02538 (parent)
chain: B1 chain
partner: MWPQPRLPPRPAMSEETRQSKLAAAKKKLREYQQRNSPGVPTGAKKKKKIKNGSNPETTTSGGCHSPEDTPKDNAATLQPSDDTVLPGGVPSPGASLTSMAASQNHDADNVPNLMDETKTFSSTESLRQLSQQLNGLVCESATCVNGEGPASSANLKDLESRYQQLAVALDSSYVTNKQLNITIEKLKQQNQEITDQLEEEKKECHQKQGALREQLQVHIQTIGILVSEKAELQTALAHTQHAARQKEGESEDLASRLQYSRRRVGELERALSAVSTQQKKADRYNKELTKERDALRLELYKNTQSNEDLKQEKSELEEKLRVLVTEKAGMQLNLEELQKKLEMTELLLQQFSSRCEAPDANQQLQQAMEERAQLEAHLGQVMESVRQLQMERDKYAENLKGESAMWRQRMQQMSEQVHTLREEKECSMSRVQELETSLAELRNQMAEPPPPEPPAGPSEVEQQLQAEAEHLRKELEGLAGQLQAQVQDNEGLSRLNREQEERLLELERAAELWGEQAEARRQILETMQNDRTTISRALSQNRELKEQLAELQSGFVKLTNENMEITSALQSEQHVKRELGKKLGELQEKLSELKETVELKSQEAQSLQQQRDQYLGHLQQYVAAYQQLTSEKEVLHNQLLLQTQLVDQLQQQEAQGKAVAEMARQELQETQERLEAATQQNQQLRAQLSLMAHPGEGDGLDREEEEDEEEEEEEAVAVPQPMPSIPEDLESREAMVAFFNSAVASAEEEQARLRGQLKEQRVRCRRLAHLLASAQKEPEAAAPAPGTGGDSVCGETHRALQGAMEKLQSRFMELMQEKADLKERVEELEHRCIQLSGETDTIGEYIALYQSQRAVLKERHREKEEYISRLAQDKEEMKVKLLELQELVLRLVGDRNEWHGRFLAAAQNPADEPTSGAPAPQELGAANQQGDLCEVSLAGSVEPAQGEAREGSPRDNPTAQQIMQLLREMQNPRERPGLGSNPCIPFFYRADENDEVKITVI
B3: Keratin, type II cytoskeletal 6A (Homo sapiens), P02538 (parent)
chain: B1 chain
partner: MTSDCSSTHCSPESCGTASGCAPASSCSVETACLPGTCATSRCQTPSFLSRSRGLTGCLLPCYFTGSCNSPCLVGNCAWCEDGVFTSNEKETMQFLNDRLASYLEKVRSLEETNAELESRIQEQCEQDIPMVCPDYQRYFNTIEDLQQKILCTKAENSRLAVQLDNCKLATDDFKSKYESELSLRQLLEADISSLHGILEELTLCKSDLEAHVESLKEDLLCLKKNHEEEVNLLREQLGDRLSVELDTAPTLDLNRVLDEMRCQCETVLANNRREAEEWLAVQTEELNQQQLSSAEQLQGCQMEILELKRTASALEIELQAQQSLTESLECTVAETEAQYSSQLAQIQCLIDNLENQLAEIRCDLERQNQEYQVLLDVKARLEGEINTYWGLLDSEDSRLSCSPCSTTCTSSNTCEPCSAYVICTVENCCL

Variants of: B1
Conditions: with tri23_human TRIM23, P36406

Variant | effect of a mutation on the interaction
MASTSTTIRSHSSSRRGFSANSARLPGVSRSGFSSVSVSRSRGSGGLGGACGGAGFGSRSLYGLGGSKRISIGGGSCAISGGYGSRAGGSYGFGGAGSGFGFGGGAGIGFGLGGGAGLAGGFGGPGFPVCPPGGIQEVTVNQSLLTPLNLQIDPTIQRVRAEEREQIKTLNNKFASFIDKVRFLEQQNKVLETKWTLLQEQGTKTVRQNLEPLFEQYINNLRRQLDSIVGERGRLDSELRGMQDLVEDFKNKYEDEINKRTAAENEFVTLKKDVDAAYMNKVELQAKADTLTDEINFLRALYDAELSQMQTHISDTSVVLSMDNNRNLDLDSIIAEVKAQYEEIAQRSRAEAESWYQTKYEELQVTAGRHGDDLRNTKQEIAEINRMIQRLRSEIDHVKKQCANLQAAIADAEQRGEMALKDAKNKLEGLEDALQKAKQDLARLLKEYQELMNVKLALDVESATYRKLLEGEECRLNGEGVGQVNISVVQSTVSSGYGGASGVGSGLGLGGGSSYSYGSGLGVGGGFSSSSGRAIGGGLSSVGGGSSTIKYTTTSSSSRKSYKH [I462S] | disrupting interaction

Variants of: B1
Conditions: with tri23_human TRIM23, P36406
Remark: another data set of the same source

Variant | effect of a mutation on the interaction
MASTSTTIRSHSSSRRGFSANSARLPGVSRSGFSSVSVSRSRGSGGLGGACGGAGFGSRSLYGLGGSKRISIGGGSCAISGGYGSRAGGSYGFGGAGSGFGFGGGAGIGFGLGGGAGLAGGFGGPGFPVCPPGGIQEVTVNQSLLTPLNLQIDPTIQRVRAEEREQIKTLNNKFASFIDKVRFLEQQNKVLETKWTLLQEQGTKTVRQNLEPLFEQYINNLRRQLDSIVGERGRLDSELRGMQDLVEDFKNKYEDEINKRTAAENEFVTLKKDVDAAYMNKVELQAKADTLTDEINFLRALYDAELSQMQTHISDTSVVLSMDNNRNLDLDSIIAEVKAQYEEIAQRSRAEAESWYQTKYEELQVTAGRHGDDLRNTKQEIAEINRMIQRLRSEIDHVKKQCANLQAAIADAEQRGEMALKDAKNKLEGLEDALQKAKQDLARLLKEYQELMNVKLALDVEIPTYRKLLEGEECRLNGEGVGQVNISVVQSTVSSGYGGASGVGSGLGLGGGSSYSYGSGLGVGGGFSSSSGRAIGGGLSSVGGGSSTIKYTTTSSSSRKSYKH [A463P] | disrupting interaction

Variants of: B2
Conditions: with goga2_human GOLGA2, Q08379

Variant | effect of a mutation on the interaction
MASTSTTIRSHSSSRRGFSANSARLPGVSRSGFSSVSVSRSRGSGGLGGACGGAGFGSRSLYGLGGSKRISIGGGSCAISGGYGSRAGGSYGFGGAGSGFGFGGGAGIGFGLGGGAGLAGGFGGPGFPVCPPGGIQEVTVNQSLLTPLNLQIDPTIQRVRAEEREQIKTLKNKFASFIDKVRFLEQQNKVLETKWTLLQEQGTKTVRQNLEPLFEQYINNLRRQLDSIVGERGRLDSELRGMQDLVEDFKNKYEDEINKRTAAENEFVTLKKDVDAAYMNKVELQAKADTLTDEINFLRALYDAELSQMQTHISDTSVVLSMDNNRNLDLDSIIAEVKAQYEEIAQRSRAEAESWYQTKYEELQVTAGRHGDDLRNTKQEIAEINRMIQRLRSEIDHVKKQCANLQAAIADAEQRGEMALKDAKNKLEGLEDALQKAKQDLARLLKEYQELMNVKLALDVEIATYRKLLEGEECRLNGEGVGQVNISVVQSTVSSGYGGASGVGSGLGLGGGSSYSYGSGLGVGGGFSSSSGRAIGGGLSSVGGGSSTIKYTTTSSSSRKSYKH [N171K] | disrupting interaction

Variants of: B3
Conditions: with KRT40, Q6A162

Variant | effect of a mutation on the interaction
MASTSTTIRSHSSSRRGFSANSARLPGVSRSGFSSVSVSRSRGSGGLGGACGGAGFGSRSLYGLGGSKRISIGGGSCAISGGYGSRAGGSYGFGGAGSGFGFGGGAGIGFGLGGGAGLAGGFGGPGFPVCPPGGIQEVTVNQSLLTPLNLQIDPTIQRVRAEEREQIKTLNNKFASFIDKVRFLEQQNKVLETKWTLLQEQGTKTVRQNLEPLFEQYINNLRRQLDSIVGERGRLDSELRGMQDLVEDFKNKYEDEINKRTAAENEFVTLKKDVDAAYMNKVELQAKADTLTDEINFLRALYDAELSQMQTHISDTSVVLSMDNNRNLDLDSIIAEVKAQYEEIAQRSRAEAESWYQTKYEELQVTAGRHGDDLRNTKQEIAEINRMIQRLRSEIDHVKKQCANLQAAIADAEQRGEMALKDAKNKLEGLEDALQKAKQDLARLLKEYQELMNVKLALDVESATYRKLLEGEECRLNGEGVGQVNISVVQSTVSSGYGGASGVGSGLGLGGGSSYSYGSGLGVGGGFSSSSGRAIGGGLSSVGGGSSTIKYTTTSSSSRKSYKH [I462S] | disrupting interaction
